B1: LINE1-full (parent)
chain: UACGUAGGUGGUUUUCCCCUGAUAGUGCUAAGGGGGCCUGGAAGUUUGGACUGGGCAGAGCUCAACACAGCGUGGCAAAGUGGCUGUGGCUAGACUGCCUCUCUGGAUUCCUCGUCACUCAGCAGGGCAUCUCUGAGAGAAAUGCC

Variants of: B1
Experiment: self-cleavage, relative activity (ratio to wild type); higher = more cleavage; in vitro, sequencing; the parent is a self-cleaving ribozyme

Variant	self-cleavage
UACGUAGGUGGUUUUCCCCUGAUAGUGCUAAGGGGGCCUGGAAGCUUGGACUGGGCAGAGCUCAACACAGCGUGGCAAAGUGGCUGUGGCUAGACUGCCUCUCUGGAUUCCUCGACACUCAGCAGGGCAUCUCUGAGAGAAAUGCC [U45C U115A]	1.49
UACGUAGGUGGUUUUCCCCUGGUAGUGCUAAGGGGGCCUGGAAGUUUGGACUGGGCAGAGCUCAACACAGCGUGGCAAAGUGGCUGUGGCUAGACUGCCUCUCUGGACUCCUCGUCACUCAGCAGGGCAUCUCUGAGAGAAAUGCC [A22G U108C]	1.16
UACGUAGGUGGUUUUCCCCUGAUAGUGCUAAGGGGGCCUGGAAGUUUGGACUGGGCAGAGCUUAACACAGCGUGGCAAAGUGGCUGUGGCUAGACUGCCUCUCUGGAUUCCUCGUCACUCAGCAGGGCAUCUCUGAGAGGAAUGCC [C63U A140G]	0.25
UACGUAGGUGGUUUUCCCCUGAUAGUGCUAAGGGGGCCUGGAAGUUUGGACUGGGCAGAGCUCAACACAGCGUGGCAAAGUGGCUGUGGCUAGACUGCCUCUCUGGAUUCCUCGUCACUCAGCAGGGCAUCCCUGAGAGAAAUGCC [U132C]	1.35
UACGUAGGUGGUUUUCCCCUGAUAGUGCUAAGGGGGCCUGGAAGUUUGGACUGGGCAGAGCUCAACACAGCGUGGCAAAGUGGCUGUGGCUAGACUGCCUCUCUGGAUUCCUCGUCACUCAGCAGGGCAUCUCUGAGAGAAGUGCU [A142G C146U]	1.49
UACGUAGGUGGUUUUCCCCUGAUAGUGCUAAGGGGGCCUGGAAGUUUGGACUGGGCAGAGCUCAACACAGCGUGGCAAAGUGGCUGUGGCUAGACUGCCUCUCUGGAUUCAUCGUCGCUCAGCAGGGCAUCUCUGAGAGAAAUGCC [C111A A117G]	1.69
UACGUAGGUGGUUUUCCACUGAUAGUGCUAAGGGGGCCUGGAAGUUUGGACUGGGCAGAGCUCAACACAGCGUGGCAAAGUGGCUGUGGCUAGACUGCCUCUCUGGAUUCCUCGUCACUCAGUAGGGCAUCUCUGAGAGAAAUGCC [C18A C123U]	1.31
UACGUAGGUGGUUUUACCCUGAUAGUGCUAAGGGGGCCUGGAAGUUUGGACUGGGCAGAGCUCAACACAGCGUGGCAAAGUGGCUGUGGCUAGACUGCCUCUCUGGAUUCCUCGUCACUCUGCAGGGCAUCUCUGAGAGAAAUGCC [C16A A121U]	1.97
UACGUAGGUGGUAUUCCCCUGAUAGUGCUAAGGGGGCCUGGAAGUUUGGACUGGGCAGAGCUCAACACAGCGUGGCAAAGUGGCUGUGGCUAGACUGCCUCUCUGGAUUCCUCGUCACUCAGCAGGGCAUCUCUGAGAGGAAUGCC [U13A A140G]	0.52
UACGUAGGUGGUUUUCCCCUGAUAGUGCUAGGGGGGCCUGGAAGUUUGGACUGGGCAGAGCUCAACACAGCGUGGCAAAGUGGCUGUGGCUAGACUGCCUCCCUGGAUUCCUCGUCACUCAGCAGGGCAUCUCUGAGAGAAAUGCC [A31G U102C]	0.35
UACGUAGGUGGUUUUCCCCUGAUAGUGCUAAGGGGGCCUGGAAGUUUGGACUGGGCAGAGCUCAACACAGCGUGGCAAAGUGGCUGUGGCUAGACUGCCACUCUGGAUUCCUCGUCACCCAGCAGGGCAUCUCUGAGAGAAAUGCC [U100A U119C]	1.23
UACGUAGGUGGUUUCCCCCUGAUAGUGCUAAGGGGGCCUGGAAGUUUGGACUGGGCAGAGCUCAACACAGCGUGGCAAAGUGGCUGUGGUUAGACUGCCUCUCUGGAUUCCUCGUCACUCAGCAGGGCAUCUCUGAGAGAAAUGCC [U15C C90U]	0.04
UACGUAGGUGGUUUUCCCCUGAUAGUGCUAAGGGGGCCUGGAAGUUUGGACUGGGCAGAGCUCAACACAGCGUGGCAAAGUGGCUGUGGCUAGACUGCCUCUCUGGAUUCCUCGUCACUCGGCAGGGCAUCUCCGAGAGAAAUGCC [A121G U134C]	1.88
UACGUAGGUGGUUUUCCCCUGAUAGUGCUAAGGGGGCCUGGGAGUUUGGACUGGGCAGAGCUCAACACGGCGUGGCAAAGUGGCUGUGGCUAGACUGCCUCUCUGGAUUCCUCGUCACUCAGCAGGGCAUCUCUGAGAGAAAUGCC [A42G A69G]	0.54
UACGUAGGUGGUUUUCCCCUGAUAGUGCUAAGGGGGCCUGGAAGUUUGGACUGGGCAGAGCUCAACACAGCGUGGCAAAGUGGCUGUGGCUAGACUGCCUCACUGGAUUCCUCGUCACUCAGCAGGGCAUCUCUAAGAGAAAUGCC [U102A G135A]	1.47
UACGUAGGUGGUUUUCCCCUGAUAGCGCUAAGGGGGCCUGGAAGUUUGGACUGGGCAGAGCUCAACACAGCGUGGCAAAGUGGCUGUGGCUAGACUGCCUCUCUGGAUUCCUCGUCACUCAGCAGGGCAUCUCUAAGAGAAAUGCC [U26C G135A]	1.65
UACGUAGGUGGUUUUCCCCUGAUAGUGCUAAGGGGGCCUGGAGGUUUGGACUGGGCAGAGCUCAACACAGCGUGGCAAAGUGGCUAUGGCUAGACUGCCUCUCUGGAUUCCUCGUCACUCAGCAGGGCAUCUCUGAGAGAAAUGCC [A43G G86A]	0.06
UACGUAGGUGGUUUUCCCCUGAUAGUGCUAAGGGGGCCUGGAAGUUUGGACUGGGCAGAGCUAAACACAGCGUGGCAAAGUGGCUGCGGCUAGACUGCCUCUCUGGAUUCCUCGUCACUCAGCAGGGCAUCUCUGAGAGAAAUGCC [C63A U87C]	0.06
UACGUAGGUGGUUUUCCCCUGAUAGUGCUUAGGGGGCCUGGAAGUUUGGACUGGGCAGAGCUCAACACAGCGUGGCAAAGUGGCUGUGGCUAGACUGCCUCUCUGGAUUCCUCGUCACUCAGCAGGGCAUCCCUGAGAGAAAUGCC [A30U U132C]	1.07
UACGUAGGUGGUUUUCCCCUGAUAGUGCUAAGGGGGCCUGGAAGUUUGGACUGGGCAGAGCUCAACACAGCGUGGCAGAGUGGCUGUGGCUAGACUGCCUCUCUGGAUUCCUCGUCACUCAACAGGGCAUCUCUGAGAGAAAUGCC [A78G G122A]	0.65

From the RNAGym collection of RNA variant scans (doi:10.7554/elife.90254)
